{"source": "patent US20230140293A1", "key": {"[1]": {"biological_target": "CH505 transmitted/founder (TF) gp120 (HIV-1)", "test": "SPR"}, "[2]": {"biological_target": "CH505 transmitted/founder (TF) gp120 (HIV-1)", "test": "ELISA, gp120 on plate"}, "[3]": {"biological_target": "CH505 w020.14 gp120 (HIV-1)", "test": "ELISA, gp120 on plate"}, "[4]": {"biological_target": "CH505 M11 gp120 (HIV-1)", "test": "ELISA, gp120 on plate"}, "[5]": {"biological_target": "CH505 TF chimeric SOSIP.III trimer (CH505TFchim.6R.SOSIP.664V4.1) (HIV-1 (CH505 gp120 / BG505 gp41 chimera))", "test": "kinetics, method not named (FIG. 69); reference CH505 TF gp120"}}, "data": [{"substance": "CH103 lineage unmutated common ancestor (UCA) (antibody)", "values": [{"measurement": "Kd", "setting": "[1]", "value": 0.2, "unit": "µM"}, {"measurement": "log AUC", "setting": "[2]", "value": 3.5, "unit": "log AUC"}, {"measurement": "log AUC", "setting": "[3]", "value": 0.3, "unit": "log AUC"}, {"measurement": "log AUC", "setting": "[4]", "value": 2.6, "unit": "log AUC"}, {"measurement": "fold improvement of the off-rate against CH505 TF gp120", "setting": "[5]", "value": 10, "unit": "fold"}]}]}
